± gives the uncertainty stated by the source.
Assay: self-splicing fitness, log relative to wild type (ln ratio); higher = more splicing; Tetrahymena group I intron in knt gene, E. coli kanamycin selection, DiMSum; sequences stand for … in CUCUCU…GGAGGGAAAAGUUAUCAGGCAUGCACCUGGUAGCUAGUCUUUAAACCAAUAGAUUGCAUCGGUUUAAAAGGCAAGACCGUCAAAUUGCGGGAAAGGGGUCAACAGCCGUUCAGUACCAAGUCUCAGGGGAAACUUUGAGAUGGCCUUGCAAAGGGUAUGGUAAUAAGCUGACGGACAUGGUCCUAACCACGCAGCCAAGUCCUAAGUCAACAGAUCUUCUGUUGAUAUGGAUGCAGUUCACAGACUAAAUGUCGGUCGGGGAAGAUGUAUUCUUCUCAUAAGAUAUAGUCGGACCUCUCCUUAAUGGGAGCUAGCGGAUGAAGUGAUGCAACACUGGAGCCGCUGGGAACUAAUUUGUAUGCGAAAGUAUAUUGAUUAGUUUUGGAGUACUCGUGGUCG
Method in brief: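 Pooled colonies went to amplicon sequencing on an Illumina HiSeq 2500 after six replicate transformations. The plates were LB agar with 100 μg/mL carbenicillin, 50 μM IPTG and 0.2% rhamnose, with or without 25 μg/mL kanamycin, incubated overnight at 37°C or 30°C. The E. coli BL21(DE3) library had all eight P1ex-region intron nucleotides randomised, the intron placed in the knt kanamycin-resistance gene on pET-22b(+). DiMSum fitness is the error-weighted combination of replicate fold changes, kanamycin against none, normalised to wild type.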

Sequence	self-splicing fitness (ln) (30 °C)	self-splicing fitness (ln) (37 °C)
CGUUAGCAAUAUUACGGUCU	-1.56 ± 0.18	-1.22 ± 0.16
CGUUAGCAAUAUUACGGUGG	-0.853 ± 0.056	-0.115 ± 0.079
CGUUAGCAAUAUUACGUAGC	-3.37 ± 0.22	-2.68 ± 0.25
CGUUAGCAAUAUUACGUCAG	-0.851 ± 0.13	0.0149 ± 0.14
CGUUAGCAAUAUUACGUCAU	-2.58 ± 0.21	-2.85 ± 0.3
CGUUAGCAAUAUUACGUCCG	-0.128 ± 0.18	-0.407 ± 0.2
CGUUAGCAAUAUUACGUCUU	-4.03 ± 0.26	-1.29 ± 0.099
CGUUAGCAAUAUUACGUGUC	-4.28 ± 0.37	-2.18 ± 0.18
CGUUAGCAAUAUUACGUUCA	-0.69 ± 0.078	-0.192 ± 0.083
CGUUAGCAAUAUUACGUUCG	-1.38 ± 0.091	-1.02 ± 0.13
CUAAAGCAAUAUUACGAAGC	–	-2.06 ± 0.42
CUAAAGCAAUAUUACGAAUG	0.281 ± 0.067	0.497 ± 0.088
CUAAAGCAAUAUUACGACUU	-3.45 ± 0.2	-3.47 ± 0.39
CUAAAGCAAUAUUACGCCAC	-2.89 ± 0.49	–
CUAAAGCAAUAUUACGCGCC	-2.84 ± 0.23	-2.6 ± 0.4
CUAAAGCAAUAUUACGCGCG	0.227 ± 0.072	-0.176 ± 0.095
CUAAAGCAAUAUUACGCUUG	-2.8 ± 0.15	-1.58 ± 0.17
CUAAAGCAAUAUUACGGAUG	-0.152 ± 0.049	-0.202 ± 0.069
CUAAAGCAAUAUUACGGCCU	-3.01 ± 0.15	-2.5 ± 0.28
CUAAAGCAAUAUUACGGGAA	-3.28 ± 0.2	-2.1 ± 0.17
CUAAAGCAAUAUUACGGGGG	-1.87 ± 0.13	-1.15 ± 0.13
CUAAAGCAAUAUUACGGGGU	-3.19 ± 0.14	-2.94 ± 0.17
CUAAAGCAAUAUUACGGUAG	-0.409 ± 0.043	-0.0448 ± 0.059
CUAAAGCAAUAUUACGGUCG	0.0851 ± 0.065	0.151 ± 0.086

Sequence	self-splicing fitness (ln) (30 °C)	self-splicing fitness (ln) (37 °C)
CUAAAGCAAUAUUACGGUUG	-0.57 ± 0.056	-0.138 ± 0.081
CUAAAGCAAUAUUACGUAUA	-3.23 ± 0.14	-3.09 ± 0.28
CUAAAGCAAUAUUACGUCAG	-0.715 ± 0.064	0.333 ± 0.1
CUAAAGCAAUAUUACGUGGC	-2.9 ± 0.12	-2.05 ± 0.15
CUACAGCAAUAUUACGAAGA	-3.21 ± 0.45	-2.56 ± 0.41
CUACAGCAAUAUUACGAAUU	-3.04 ± 0.14	-2.94 ± 0.24
CUACAGCAAUAUUACGACUA	-2.2 ± 0.23	-2.38 ± 0.35
CUACAGCAAUAUUACGACUU	-3.83 ± 0.32	-2.81 ± 0.35
CUACAGCAAUAUUACGAGAU	-4.21 ± 0.37	-2.96 ± 0.28
CUACAGCAAUAUUACGAGCC	-2.24 ± 0.24	-1.88 ± 0.31
CUACAGCAAUAUUACGAGGA	-3.4 ± 0.2	-3.21 ± 0.27
CUACAGCAAUAUUACGAUGA	-3.02 ± 0.19	-2.13 ± 0.14
CUACAGCAAUAUUACGAUGU	-3.46 ± 0.17	-2.44 ± 0.19
CUACAGCAAUAUUACGCACA	-3.12 ± 0.2	-3.29 ± 0.27
CUACAGCAAUAUUACGCCAA	-3.32 ± 0.17	-3.04 ± 0.25
CUACAGCAAUAUUACGCCCA	-2.99 ± 0.27	-1.85 ± 0.23
CUACAGCAAUAUUACGCCUA	-2.46 ± 0.18	-3.31 ± 0.28
CUACAGCAAUAUUACGCGCC	-3.98 ± 0.35	-2.3 ± 0.41
CUACAGCAAUAUUACGCGCU	-3.59 ± 0.28	-1.5 ± 0.23
CUACAGCAAUAUUACGCGUA	-3.72 ± 0.31	-2.84 ± 0.3
CUACAGCAAUAUUACGCUUC	–	-2.88 ± 0.44
CUACAGCAAUAUUACGGACA	-1.52 ± 0.39	-2.47 ± 0.38
CUACAGCAAUAUUACGGCAG	-1.07 ± 0.063	-0.452 ± 0.088
CUACAGCAAUAUUACGGCGA	-2.97 ± 0.39	-2.91 ± 0.27

Source: the supplement of paper PMC7877785
